The values that follow come from patent US20040214258A1.

This test addresses hR.Luc-connector-DhaA.H272F-Flag fusion protein with covalently bound biotin-C18H32O4-Cl substrate (Rhodococcus rhodochrous) (UniProt P0A3G2). Put plainly: capture on SA-coated 96-well plate through tethered biotin; captured luciferase activity measured.

Substance “streptavidin (SA) coated on a solid support (from UniProt P22629 37-163)” had an efficiency of capturing (% of Renilla luciferase activity added to the plate) of over 50%.
